Test [1] deals with RBDSARS-CoV (SARS-CoV S protein residues 318-510, C-terminal His-tag) (SARS-CoV, UniProt P59594 318-510). As to the kind of experiment: ELISA. In general terms: In an ELISA, binding on a coated surface is turned into a signal by an enzyme label.
Test [2] concerns the target RBDSARS-CoV-2 (SARS-CoV-2 S protein residues 319-539, C-terminal His-tag) (SARS-CoV-2, UniProt P0DTC2 319-539). Kind of test: ELISA.

B1: 5p-156 (VHH)
VHH: EVQLVESGGGLVQAGDSLRLSCVASGRTFTTSIMGWFRQAPGKEREFVAAIARNGVSTFYADSVKGRFTASRDNAKNTLYLQMNSLKPEDTGVYYCAAKPRGVGLTDRISDYDYWGQGTQVTVSS
Consider B1, for which the 50% inhibitory concentration (IC50) was 10 to 100 nM in test [1] and < 10 nM in test [2].

B2: 5p-98 (VHH)
VHH: QVQLVESGGGLVQPGGSLRLSCAASGRTLSNYAMGWFRQAPGKEREFVAVIRQRTGMRSYTYYADSVEGRFTISGDGAKMTVSLQMNSLKPEDTAVYYCAIDLIDDYKSTYYYSTQPSSYDYWGQGTQVTVSS
Regarding B2, the IC50 in test [1] was 10 to 100 nM; in test [2] it was < 10 nM.

B3: 5p-168 (VHH)
VHH: DVQLVESGGGLVQAGASLRLSCVVSGVTFSTYGMAWFRQAPEKQRTFVATITREDTTFYADSVKGRFTISRDNAKNTVYLQMNSLKLEDTAVYYCAVRRDSSWGYSRDLFEYDDWGQGTQVTVSS
On to B3, for which the 50% inhibitory concentration (IC50) in test [1] and in test [2] was < 10 nM throughout.

B4: 5p-162 (VHH)
VHH: DVQLVESGGGFVQAGGSLRLSCADSGLTRSVWPMGWFRQAPGKEREFVAGIAWSGERQSYADFVKGRFTVSRDNARNTVYLQMNSLKPEDTAVYYCAAPTSGVFGRTYAPTATSSYDSWGQGTQVTVSS
For B4, the IC50 in test [1] and in test [2] was 10 to 100 nM throughout.

B5: 5p-179 (VHH)
VHH: HVQLVESGGGLVQAGGSLRLSCAASGTISTLNAMGWYRQAPGKQRELLASISNLGTTYHADSVAGRFTISRGSAKNTVNLQMNSLKPDDTAVYYCNTRVLEGGTQIRDYWGQGTQVTVSS
notes: class IV psNb
Take B5: the IC50 was > 8000 nM in test [1] and < 10 nM in test [2].

B6: 4P-3 (VHH)
VHH: DVQLVESGGGLVQAGDSLRLSCAASGRTFGNYVLDWFRQAPGKEREFVASITQTGFGTYYADAVKGRFTISRDNAKNTMYLQMNSLKPEDTAVYYCAADFTAQNGGIRNPTYWGQGTQVTVSS
Turning to B6, the IC50 in test [1] lay within 1000 to 8000 nM; in test [2] it was 10 to 100 nM.

B7: 4P-4 (VHH)
VHH: DVQLVESGGGLVQAGDSLRLSCAASGRTFGNYVLDWFRQAPGKEREFVASITQTGFGTYYADAVKGRFTISRDNAKNTMYLQMNSLKPEDTAVYYCAADFTAQNRGIRIPRYWGQGTQVTVSS
As for B7, the IC50 lay in the range of 100 to 1000 nM in test [1] and 10 to 100 nM in test [2].

B8: 4P-5 (VHH)
VHH: DVQLVESGGGLVQAGGSLRLSCAASGRTFGNYVLDWFRQAPGKEREFVASITQTGFGTYYADAVKGRFTISRDNAKNTMYLQMNSLKPEDTAVYYCAADFTVQNGGIRNPTYWGQGTQVTVSS
As for B8, the 50% inhibitory concentration (IC50) in test [1] is 100 to 1000 nM; in test [2], 10 to 100 nM.

B9: 5p-174 (VHH)
VHH: HVQLVESGGGLVQTGASLRLSCKASGRTFSTYTISWFRQAPGKEREFVGGVATSGGTTYYGDSVQGRFTISRDNAKNEVYLQMNSVKPEDTAVYICAARSVIQDTVVISNPIHFEYWGQGTQVTVSS
As for B9, the IC50 in test [1] and in test [2] was < 10 nM throughout.

B10: 4P-84 (VHH)
VHH: HVQLVESGGGLVQAGGSLRLSCAVSGRTVSTYGMGWFRQAPGKERDFVATITRSGGTTLYADSVKGRFTISRDNAKNTVYLQMNSLKIEDTAVYYCAVRRDSSFGYSRDSFEYDDWGQGTQVTVSS
As for B10, the IC50 in test [1] and in test [2] was < 10 nM throughout.

B11: 5p-169 (VHH)
VHH: DVQLVESGGGLVQAGGSLRLSCLVSGLTFSTYGMGWFRQAPGKEREFVAQITRSGSPTLYADSVKGRFTISRDNAKNTMYLQMNSLKIEDTAVYYCAVRRDSSWGYSRDSFEYDYWGQGTQVTVSS
Consider B11, for which the IC50 in test [1] and in test [2] was < 10 nM throughout.

B12: 4P-86 (VHH)
VHH: DVQLVESGGGLVQAGGSLRLSCAVSGRTVSTYGMAWFRQAPGKEREFVATITRSEGTTFYADSVKGRFTISRDNAKNTVYLQMNSLKIEDTAVYYCAVRRDSSWGYSRDSFEYDDWGQGTQVTVSS
With B12, the IC50 in test [1] and in test [2] was < 10 nM throughout.

B13: 5p-10 (VHH)
VHH: QVQLVESGGGLVQAGGSLRLSCAASGRTFSSSAMGWFRQAPGKDREFVAAISPSSTNTGYTDSVKGRFTISRDNTKNTVDLQMNNLKPEDTAIYYCAADANSLRYGYSQNQGRYEYWGQGTQVTVSS
With B13, the IC50 was 10 to 100 nM in test [1] and < 10 nM in test [2].

B14: 5p-171 (VHH)
VHH: QVQLVESGGGLVQTGGSLRLSCAASGRTFSTYTMGWFRQAPGKEREFVAAITPTGYGTKSADSVKGRFIISRDNPKNTVYLQMNNLKPEDTAVYYCAARSGTITNQDQYDFHYWGQGTQVTVSS
For the molecule B14, the 50% inhibitory concentration (IC50) in test [1] is 10 to 100 nM; in test [2], < 10 nM.

B15: 5p-180 (VHH)
VHH: QVQLVESGGGLVQAGGSLRLSCVASGTISTLNAMGWYRQAPGKQRELLTSISNLGTTYSADSVKGRFTISRGNAKNTVYLQMDSLKPDDTAVYYCNTRVLEGTEYRDYWGQGTQVTVSS
With B15, the values for the IC50 in test [1] and in test [2] were > 8000 nM and < 10 nM, respectively.

B16: 5p-93 (VHH)
VHH: QVQLVESGGGLVQPGGSLRLSCAASGFTFNRYAMSWVRQAPGKGREWVSGIYSDGSETYYTESVKGRFTISRDNAKNMLYLQMNSLKPEDTALYYCAKDENAHEDYFNSGFDRKYDYWGQGTQVTVSS
notes: class III psNb
Turning to B16, the IC50 was > 8000 nM in test [1] and < 10 nM in test [2].

B17: 4P-10 (VHH)
VHH: HVQLVESGGGLVQAGDSLRLSCTASGRTFSAYGMGWFRQAPGKEREFVAGIARSGSEYYGDSVKGRFTISRDNAKNTVYLQMASLKAEDTGVYYCAADPTILYHAISQRTQNYRYWGPGTQVTVSS
Regarding B17, the IC50 in test [1] was 100 to 1000 nM; in test [2], < 10 nM.

B18: 4P-9 (VHH)
VHH: QVQLVESGGGLVQAGDSLRLSCTASGRTFSAYGMGWFRQAPGKEREFVAGIARSGSEYYGDSVKGRFTISRDNAKNTVYLQMASLKAEDTGVYYCAADPTILYHAISQRTQNYRHWGPGTQVTVSS
Consider B18, for which the IC50 is 100 to 1000 nM in test [1] and < 10 nM in test [2].

B19: 5p-24 (VHH)
VHH: DVQLVESGGGLVQAGDSLRLSCTASGLTFSAYGMGWFRQAPGKEREFVAGIARSGSEFYGDSVKGRFTISRDNAKNTVYLQVNSLRPEDTALYYCAADRTILYHAISQRTQNYQYWGPGTQVTVSS
Consider B19, for which the IC50 in test [1] and in test [2] was < 10 nM throughout.

B20: 5p-164 (VHH)
VHH: DVQLVESGGGLVKTGDSLRLSCAVSGGTFGSYGMAWFRQAPGKEREIVASIGRTGRTTDYADSVKGRFSIARDNAKNTVYLQMNNLKPEDTAVYYCAARIFSLNYALIGRDTNINYWGQGTQVTVSS
On to B20, for which the values for the IC50 in test [1] and in test [2] were 10 to 100 nM and < 10 nM, respectively.

B21: 5p-126 (VHH)
VHH: QVQLVESGGGLVQAGGSLRLSCAAAARFSTSAMGWFRQAPGKEREFVAAVSWSNTNTHYADTVKGRFTISADTAKETVYLQMNSLKPEDTAVYYCAQGGWGLTQPIIVDYWGKGTQVTVSS
For B21, the concentration for half-maximal inhibition (IC50) in test [1] and in test [2] was < 10 nM throughout.

B22: 5p-16 (VHH)
VHH: DVQLVESGGGLVQAGGSLRLSCLASGRTFSNYAMAWFRQSPGKEREFVAVITSGRSTDYADSVKGRFTISRDNAKNTVYLQMNSLKPEDTAVYYCAADQAPLRFSYSLSRDKYDYWGQGTQVTVSS
In the case of B22, the half-maximal inhibitory concentration (IC50) in test [1] was 10 to 100 nM; in test [2], < 10 nM.

B23: 4P-12 (VHH)
VHH: DVQLVESGGGLVQAGGSLRLSCAASGRTFSSYTMGWFRQAPGKEREFVAVISSGRSTDYADSVKGRFTISRDNAKNTVYLQMNSLKPEDTAVYYCAADQAPLRFSYSLSRDEYDYWGQGTQVTVSS
Consider B23, for which the IC50 was 10 to 100 nM in test [1] and < 10 nM in test [2].

B24: 5p-17 (VHH)
VHH: QVQLVESGGGLVQAGGSLRVSCAASGRSFSDYAMAWFRQSPGKEREFVAVITSGRSTDYADSVKGRFTISRDNAKNTVYLQMNSLKPEDTAVYYCAADQTPLRFSYSLSRDKYDYWGQGTQVTVSS
For B24, the IC50 in test [1] and in test [2] was < 10 nM throughout.

B25: 5p-176 (VHH)
VHH: EVQLVESGGRLVQAGGSLRLSCAASGRTFSTYTMAWFRQAPGKEREFVAGIARNGDTAYYSDSVKGRFTISRDNAKNEVSLQMNSLKPEDTAVYTCAARSVVQLEVVLNNPIHFEYWGQGTQVTVSS
On to B25, for which the 50% inhibitory concentration (IC50) in test [1] and in test [2] was < 10 nM throughout.

B26: 5p-4 (VHH)
VHH: QVQLVESGGGLVQAGASLRLSCAASGRTFTNSHMGWFRQAPGKERDFVAVISRSGGSTLYADSVKGRFTISRDNAKNTVYLQMNTMKPEDTAVYYCAGARTAGLTSNPSLYDYWGQGTQVTVSS
With B26, the IC50 is 10 to 100 nM in test [1] and < 10 nM in test [2].

B27: 5p-6 (VHH)
VHH: DVQLVESGGGLVQAGGSLRLSCAASGSTFSGNAIGWYRQAPGKQRELVATINAPGSTDYAESVKGRFTISRDNAKNTVFLQMNSLKPEDTAVYYCNVCKFLLSVLCHPGQDYWGQGTQVTVSS
As to B27, the half-maximal inhibitory concentration (IC50) in test [1] was 10 to 100 nM; in test [2], < 10 nM.

B28: 5p-99 (VHH)
VHH: HVQLVESGGGSVQPGGSLRLSCAASGLTLDHYAVGWFRQAPGKEREGVSCISSSTGSAYYADSVKGRFTISRDNAKNMMYLEMNSLKPEDTAVYYCATDLLRRMLPGSSWWCLNQNDFGSWGQGTQVTVSS
With B28, the results for the concentration for half-maximal inhibition (IC50) in test [1] and in test [2] were 1000 to 8000 nM and < 10 nM, respectively.

What is called IC50 is the midpoint of a concentration-inhibition curve. Lower therefore signals greater potency in that assay.

The values are drawn from patent US20250002563A1 (UNIVERSITY OF PITTSBURGH OF THE COMMONWEALTH SYSTEM OF …, published 2025).
